Patent publication US20220332804A1 (CSL INNOVATION, published 2022)

Legend:
Assay in all cases: SPR, mAb captured, C2 mutant analyte;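 also: Anti-C2 mAbs captured on goat anti-human IgG Biacore CM5 chips, alanine or serine C2 surface mutants flowed over at 37 °C, double-referenced sensorgrams fitted to a 1:1 binding model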
human C2 E324A = molecular target: T1, human C2 E324A (human, UniProt P06681 21-752)
T1 sequence: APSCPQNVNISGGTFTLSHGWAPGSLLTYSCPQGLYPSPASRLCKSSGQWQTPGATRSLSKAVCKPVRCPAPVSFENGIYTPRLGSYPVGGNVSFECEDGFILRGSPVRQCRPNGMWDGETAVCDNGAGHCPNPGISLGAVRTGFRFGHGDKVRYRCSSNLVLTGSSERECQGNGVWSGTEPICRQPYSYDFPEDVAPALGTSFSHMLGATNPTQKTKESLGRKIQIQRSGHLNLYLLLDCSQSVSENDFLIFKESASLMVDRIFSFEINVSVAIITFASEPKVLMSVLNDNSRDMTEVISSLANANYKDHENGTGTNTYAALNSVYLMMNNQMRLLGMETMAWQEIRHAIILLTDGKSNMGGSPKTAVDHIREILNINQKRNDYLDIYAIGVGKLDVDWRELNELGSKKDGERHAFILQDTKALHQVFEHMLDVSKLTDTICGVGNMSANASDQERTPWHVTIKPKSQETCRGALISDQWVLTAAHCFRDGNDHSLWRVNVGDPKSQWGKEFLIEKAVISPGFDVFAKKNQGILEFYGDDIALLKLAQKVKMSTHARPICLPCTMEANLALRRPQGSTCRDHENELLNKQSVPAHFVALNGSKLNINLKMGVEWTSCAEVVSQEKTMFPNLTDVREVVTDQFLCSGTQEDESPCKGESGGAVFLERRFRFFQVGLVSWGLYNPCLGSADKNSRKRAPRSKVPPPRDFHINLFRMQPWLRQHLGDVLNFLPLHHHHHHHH

human C2 D269A = molecular target: T2, human C2 D269A (human, UniProt P06681 21-752)
T2 sequence: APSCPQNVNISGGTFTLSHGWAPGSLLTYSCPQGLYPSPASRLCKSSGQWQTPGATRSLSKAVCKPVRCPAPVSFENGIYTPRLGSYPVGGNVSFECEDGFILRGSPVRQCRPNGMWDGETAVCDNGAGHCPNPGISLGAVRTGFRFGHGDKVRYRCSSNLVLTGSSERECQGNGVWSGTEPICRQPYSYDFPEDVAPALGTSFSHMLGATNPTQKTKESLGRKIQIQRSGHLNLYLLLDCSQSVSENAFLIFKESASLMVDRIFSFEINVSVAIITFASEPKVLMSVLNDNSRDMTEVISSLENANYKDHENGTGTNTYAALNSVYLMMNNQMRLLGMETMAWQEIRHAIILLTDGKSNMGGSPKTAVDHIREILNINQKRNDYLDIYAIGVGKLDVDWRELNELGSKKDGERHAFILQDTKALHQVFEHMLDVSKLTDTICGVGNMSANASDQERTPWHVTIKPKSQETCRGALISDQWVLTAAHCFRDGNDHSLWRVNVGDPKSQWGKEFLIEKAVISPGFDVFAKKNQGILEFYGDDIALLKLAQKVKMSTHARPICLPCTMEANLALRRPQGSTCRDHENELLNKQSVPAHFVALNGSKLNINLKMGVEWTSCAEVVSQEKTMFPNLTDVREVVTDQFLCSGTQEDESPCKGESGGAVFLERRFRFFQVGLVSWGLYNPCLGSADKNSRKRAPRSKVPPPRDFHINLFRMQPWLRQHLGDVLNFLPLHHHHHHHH

human C2 F270A = molecular target: T3, human C2 F270A (human, UniProt P06681 21-752)
T3 sequence: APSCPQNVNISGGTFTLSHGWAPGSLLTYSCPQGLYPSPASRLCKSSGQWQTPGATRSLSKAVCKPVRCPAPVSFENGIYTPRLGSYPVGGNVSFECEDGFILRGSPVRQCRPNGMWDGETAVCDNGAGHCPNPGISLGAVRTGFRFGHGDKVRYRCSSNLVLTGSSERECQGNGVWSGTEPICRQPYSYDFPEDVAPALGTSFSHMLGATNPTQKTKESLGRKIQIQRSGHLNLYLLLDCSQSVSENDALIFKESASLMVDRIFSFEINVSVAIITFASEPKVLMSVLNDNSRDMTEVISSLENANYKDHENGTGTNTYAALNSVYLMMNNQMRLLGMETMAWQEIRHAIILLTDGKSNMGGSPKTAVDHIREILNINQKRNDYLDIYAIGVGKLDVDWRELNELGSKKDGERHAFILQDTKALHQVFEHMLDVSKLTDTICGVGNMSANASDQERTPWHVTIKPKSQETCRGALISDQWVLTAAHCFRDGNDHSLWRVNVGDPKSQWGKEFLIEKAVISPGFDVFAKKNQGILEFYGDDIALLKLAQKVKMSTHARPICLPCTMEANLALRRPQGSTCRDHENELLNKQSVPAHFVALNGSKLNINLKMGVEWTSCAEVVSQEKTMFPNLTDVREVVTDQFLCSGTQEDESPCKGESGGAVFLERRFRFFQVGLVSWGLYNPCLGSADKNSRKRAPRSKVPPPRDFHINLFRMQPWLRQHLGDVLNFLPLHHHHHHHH

human C2 V418A = molecular target: T4, human C2 V418A (human, UniProt P06681 21-752)
T4 sequence: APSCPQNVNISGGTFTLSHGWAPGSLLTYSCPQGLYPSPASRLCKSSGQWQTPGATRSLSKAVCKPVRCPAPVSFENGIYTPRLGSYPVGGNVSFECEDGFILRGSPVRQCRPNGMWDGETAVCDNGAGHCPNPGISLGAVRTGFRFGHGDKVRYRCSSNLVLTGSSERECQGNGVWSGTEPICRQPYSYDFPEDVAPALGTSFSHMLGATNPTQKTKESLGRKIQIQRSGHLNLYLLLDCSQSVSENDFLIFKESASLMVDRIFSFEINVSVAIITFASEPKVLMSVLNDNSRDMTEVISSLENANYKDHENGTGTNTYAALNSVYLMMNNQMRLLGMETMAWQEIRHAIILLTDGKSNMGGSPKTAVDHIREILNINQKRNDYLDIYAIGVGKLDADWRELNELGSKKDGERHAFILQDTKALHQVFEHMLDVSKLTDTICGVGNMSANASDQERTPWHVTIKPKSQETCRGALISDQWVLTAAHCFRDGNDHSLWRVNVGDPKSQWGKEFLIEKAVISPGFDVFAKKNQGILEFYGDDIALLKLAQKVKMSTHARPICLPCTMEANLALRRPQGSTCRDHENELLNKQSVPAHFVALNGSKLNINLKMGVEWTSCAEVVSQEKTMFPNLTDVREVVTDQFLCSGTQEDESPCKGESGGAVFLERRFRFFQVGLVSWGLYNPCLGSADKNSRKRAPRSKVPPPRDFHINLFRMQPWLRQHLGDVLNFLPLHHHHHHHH

B1: RF16-214 (antibody, V domains shown)
VH: EVQLLESGGGLVQPGGSLRLSCAASGFTFSWYQMMWVRQAPGKGLEWVSRIYPSGGGTAYADSVKGRFTISRDNSKNTLYLQMNSLRAEDTAVYYCARDAGYGDNWGQGTLVTVSS
VL: QSALTQPPSVSVSPGQTASITCSGDKLGEKYASWYQQKAGQSPVMVIYQDRKRPSGIPERFSGSNSGNTATLTISGTQAMDEADYYCQAWDTRAVVFGGGTKLTVLG
- Kd (human C2 E324A): 27.8 nM
- Kd (human C2 D269A): 17.2 nM
- binding result (human C2 F270A): no binding
- Kd (human C2 V418A): 15.6 nM
